Bridge positions count the residues as written; N and C are the ends. Ends that are not written are not given here.
How the values were obtained:
[1] = system: PC12 (TrkA and p75^NTR positive) cells; experiment: Gene delivery in vitro (pCAGluc luciferase reporter), PC12 cells; format: cell-based, rat
Procedure: A PC12 (rat pheochromocytoma) cell line was obtained from ATCC (American Type Culture Collection, Manassas, Va., USA) and cultured in RPMI-1640 medium supplemented with 10% fetal bovine serum (FBS) and 5% horse serum. PC12 cells are known to express TrkA and p75^NTR receptors. A COS7 (African green monkey kidney fibroblast) cell line was obtained from ATCC and cultured in Dulbecco's modified Eagle's medium (DMEM) supplemented with 10% fetal bovine serum, 50 U/ml penicillin, and 50 μg/ml streptomycin. The cells were maintained in a 37° C., 5% CO2, humidified incubator.
To determine the transfection efficiencies of our nucleic acid delivery systems, we employ a reporter plasmid, pCAGluc (a gift from Yoshiharu Matsuura, National Institute of Infectious Diseases, Tokyo, Japan), encoding firefly luciferase under the control of the composite promoter, CAG. CAG comprises the chicken β-actin promoter and the cytomegalovirus immediate early enhancer.
TrkA-targeting gene delivery complexes were tested for transfection efficiency in vitro in PC12 (TrkA and p75^NTR positive) cells and COS7 (neurotrophin receptor negative) cells. The cells were grown to 50–70% confluency in microplate wells (24-, 48-, or 96-well plates). The gene delivery complexes were prepared according to specifications presented for each example. Transfection was accomplished by replacing the serum-enriched medium with half the usual volume of reduced-serum medium, Opti-MEM (Invitrogen), containing the gene delivery complexes. Where specifically mentioned, 100 μM of chloroquine was also added to help the complexes escape from endosomes. After four hours of incubation, the cells were restored to the normal medium volume and serum concentration, either by topping up with medium containing twice the usual serum concentration (RPMI-1640 with 20% FBS and 10% horse serum for PC12) or by completely replacing the medium.
One to two days after transfection, the cell culture medium was removed and the cells were rinsed in phosphate-buffered saline (PBS). Enough Reporter Lysis Buffer (Promega, Wisconsin, Md., USA) to cover the bottom surface was added to each well (50 μl/well for 48-well plates). After one freeze-thaw cycle, the lysates were tested for luciferase activity using the Luciferase Assay System (Promega) and a single-tube luminometer (Berthold Lumat L B 9507, Bad Wildbad, Germany). The total protein concentration of each lysate was determined using the DC Protein assay (Bio-Rad, Hercules, Calif., USA). The results were expressed in relative light units (RLU) per milligram of total protein.

primary glial cells = experiment: Gene delivery to primary cultures of glial cells; format: cell-based, rat
Procedure: Primary cultures of glial cells were established from the cortices of 20-day old embryonic Wistar rats. Individual cells were collected as described above. The cells were plated at a density of 4×10^5 viable cells/cm^2 on poly-L-lysine/laminin coated dishes and grown to confluence for 7 days in DMEM/F12 medium supplemented with 10% FCS. The day before transfection, the cells were detached and plated into coated microplates at a density of 2.5×10^4 cells per well. Gene delivery complexes were also tested on primary cultures of cortical neurons and glial cells in a similar fashion. […] Four hours later, an equal volume of DMEM-F12/N2 was added. One to two days after transfection, the cell culture medium was removed and the cells were rinsed in phosphate-buffered saline (PBS). Enough Reporter Lysis Buffer (Promega, Wisconsin, Md., USA) to cover the bottom surface was added to each well (50 μl/well for 48-well plates). After one freeze-thaw cycle, the lysates were tested for luciferase activity using the Luciferase Assay System (Promega) and a single-tube luminometer (Berthold Lumat L B 9507, Bad Wildbad, Germany). The total protein concentration of each lysate was determined using the DC Protein assay (Bio-Rad, Hercules, Calif., USA). The results were expressed in relative light units (RLU) per milligram of total protein.

plasmid DNA [2] = experiment: DNA retardation assay (agarose gel electrophoresis); format: binding
Procedure: This assay qualitatively assesses the ability of a polypeptide or polycation to bind to DNA and thus to retard its migration (by decreasing its charge/mass ratio) through an agarose gel under electrophoresis. For a range of N/P ratios, polypeptide was added to 0.1 μg of plasmid DNA made up to 20 μl with either HEPES-buffered saline (HBS, 150 mM NaCl, 29 mM HEPES, pH 7.3) or 5% glucose. The mixtures were vortexed and incubated at room temperature for 30 minutes before being subjected to electrophoresis in a 0.8–1.0% Tris-borate-EDTA agarose gel stained with ethidium bromide for visualization under ultraviolet light.

plasmid DNA [3] = experiment: Ethidium bromide displacement assay; format: binding; conditions: 0.8 μg DNA pre-mixed with ethidium bromide
Procedure: In this assay, the quenching of the fluorescence of ethidium bromide intercalated in DNA is used to measure DNA-binding and condensing ability. Ethidium bromide (153 μl of a 0.01% solution) was added to 96 μg of plasmid DNA and diluted with water to a final volume of 6 ml. In wells of a 96-well microplate, various amounts of polypeptide were placed in a volume of 50 μl, to which 50 μl of the DNA-ethidium bromide solution was added. After five minutes of mixing, 100 μl of water was added. The fluorescence reading was taken using wavelengths of 485 nm for excitation and 593 nm for emission on a SPECTRAFluor Plus microplate reader (TECAN, Maennedorf, Switzerland).

plasmid DNA [4] = experiment: Atomic force microscopy of polypeptide-DNA complexes; format: physicochemical
Procedure: DNA samples, polypeptide-DNA complexes, and polypeptide-polycation-DNA complexes were prepared with a DNA concentration of 0.02 mg/ml. The samples were diluted ten-fold in HPLC-grade water, and 20 μl of each sample was deposited onto mica discs. After one minute, the mica discs were washed with HPLC-grade water and dried in a stream of filtered air. Images were acquired on a Nanoscope IIIa atomic force microscope (Digital Instruments, Santa Barbara, Calif., USA) operating in tapping mode in air, using Nanoprobe Silicon tips (Digital Instruments).

PC12 cells = experiment: PC12 cell survival assay (MTT, serum-free medium); format: cell-based, rat; conditions: 8 μM, deprived of serum and NGF for 3 days
Procedure: Undifferentiated or differentiated (by 6-day treatment with 10 ng/ml NGF) PC12 cells seeded onto collagen-coated 96-well plates were exposed to serum-free RPMI-1640 medium containing either NGF or various concentrations of chimeric polypeptides. After 3–4 days of incubation, cell viability was measured by the standard MTT assay. Cell survival was expressed as a percentage of the viability of the NGF-treated control.

| Molecule | gene delivery at N/P ratio of 1 (in words) ([1]; 0.3 nmol peptide with 1 μg pCAGluc, 100 μM chloroquine) | transfection efficiency relative to a mixture of NL4 and 10K peptides ([1]; 1.5 nmol peptide per μg DNA (N/P ratio of 5), 100 μM chloroquine, 24 h) [times] | dose-response of transfection efficiency with increasing amount of peptide ([1]; 1 μg pCAGluc/well, 100 μM chloroquine) | difference between transfection efficiencies of NL4-10K and 10K (primary glial cells; peptide/DNA 0.75 nmol/μg (N/P ratio of 2.5), chloroquine) | DNA binding / retardation of DNA migration (in words) (plasmid DNA [2]) | N/P ratio at which ethidium bromide fluorescence dropped sharply (DNA condensation) (plasmid DNA [3]) | DNA condensation seen by atomic force microscopy, with PEI600 (plasmid DNA [4]; PEI600 (N/P ratio of 5) added) | DNA condensation seen by atomic force microscopy, peptide alone (plasmid DNA [4]; peptide and plasmid DNA without polycation) | transfection efficiency of complexes of polypeptide and DNA alone ([1]; no polycation) | transgene expression relative to PEI600 alone ([1]; triple complexes with PEI600, highest amount of SPKR4NL1-2 tested) [fold] | transfection efficiency relative to PLL without SPKR4NL1-2 ([1]; triple complexes with poly-L-lysine (MW 1000), chloroquine, optimal amount of SPKR4NL1-2) [times] | difference between SPKR4NL1-2 and (SPKR)4 triple complexes (primary glial cells; 0.25 μg/well pCAGluc, PEI600, 24 h) | PC12 viability as % of maximum NGF-promoted survival rate (PC12 cells) [%] |
| --- | --- | --- | --- | --- | --- | --- | --- | --- | --- | --- | --- | --- | --- |
| CTTTHTFVKALTMDGKQAAWRFIRIDTACKKKKKKKKKK (CTTTHTFVKALTMDGKQAAWRFIRIDTACKKKKKKKKKK; disulfide 1-29) [NL4-10K] | modest gene delivery | 110 | increased markedly | not significant | – | – | – | – | – | – | – | – | – |
| SPKR4NL1-2: chimeric protein: (SPKR)4 DNA-binding domain, α-helical linker, targeting domain with loops 1 and 2 of NGF (aa 17–67), His10 tag (protein, SPKR4NL1-2) MGHHHHHHHHHHSSGHIEGRHMSPKRSPKRSPKRSPKRGGTYLSEDELKAAEAAFKRHNPTGSCSVSVWVGDKTTATDIKGKEVMVLGEVNINNSVFKQYFFETKCRDPNPVDSG | – | – | – | – | reduced the mobility of DNA | about 10 N/P ratio | compact nanoparticles are formed | only partially condenses plasmid DNA | relatively weak transfection efficiencies | 5000 | 1000 | essentially no difference | 80 |
